This is an account of results in PMC2824034, “The indispensable N-terminal half of eIF3j/HCR1 co-operates with its structurally conserved binding partner eIF3b/PRT1-RRM and eIF1A in stringent AUG selection” (Journal of molecular biology, 2010).

As a reminder, the Kd is the constant that tells how readily two partners part at equilibrium.

The chains are these.
B1: heIF3b-RRM_(170-274) (domain or fragment, human, UniProt P55884 170-274, looked up)
chain: GDVLKDRPQEADGIDSVIVVDNVPQVGPDRLEKLKNVIHKIFSKFGKITNDFYPEEDGKTKGYIFLEYASPAHAVDAVKNADGYKLDKQHTFRVNLFTDFDKYMT
notes: 13C/15N-labeled in some NMR samples; The limits are printed for the NMR complex; the ITC names only heIF3b-RRM; also called human eIF3b-RRM; heIF3b-RRM domain; source: E. coli BL21(DE3), purified (nickel-chelating column, TEV cleavage, second nickel column)
B2: His6-heIF3b-RRM-Y253A (domain or fragment, human, UniProt P55884 170-274, looked up)
chain: B1 chain with Y84A
notes: human eIF3b, RNA recognition motif domain, Y253A; source: E. coli BL21(DE3), purified (nickel-chelating column)
B3: His6-heIF3b-RRM-F261A (domain or fragment, human, UniProt P55884 170-274, looked up)
chain: B1 chain with F92A
notes: human eIF3b, RNA recognition motif domain, F261A; source: E. coli BL21(DE3), purified (nickel-chelating column)
B4: His6-heIF3b-RRM-I210A (domain or fragment, human, UniProt P55884 170-274, looked up)
chain: B1 chain with I41A
notes: human eIF3b, RNA recognition motif domain, I210A; source: E. coli BL21(DE3), purified (nickel-chelating column)
B5: heIF3j_(35-69) peptide (peptide, UniProt O75822 35-69, looked up)
peptide: GGDRWEGEDEDEDVKDNWDDDDDEKKEEAEVKPEV
notes: human eIF3j, residues 35-69, with the N-terminal acidic motif (NTA) around Trp52; 13C/15N-labeled in some NMR samples; also called heIF3j peptide; short heIF3j peptide; source: E. coli BL21(DE3), purified (nickel-chelating column, TEV cleavage, nickel column, HiTrap DEAE); not shown: His6, N-terminal, cleaved; lipoyl domain, N-terminal, cleaved

Substitutions are numbered along the chain they refer to. Names and notes keep the numbering of the source.

What all share (conditions): both partners purified
One experiment addresses T1, heIF3j-N51A-W52A (human, UniProt O75822 1-258, N51A | W52A).
T1 construct: human eIF3j, full length, N51A and W52A; source: E. coli BL21(DE3), purified (nickel-chelating column, TEV cleavage, second nickel column)
Put plainly: ITC; VP-ITC; cell: 50 μM full-length heIF3j wt or mutant; syringe: 1 mM heIF3b-RRM; 20 mM Hepes pH 7.5, 200 mM NaCl, 25°C. In general terms: ITC needs no label: the signal is the heat of the interaction.

In another experiment the target is T2, heIF3j-N51A (human, UniProt O75822 1-258, N51A).
T2 construct: human eIF3j, full length, N51A; source: E. coli BL21(DE3), purified (nickel-chelating column, TEV cleavage, second nickel column)
The experiment is described as above.

The target of another experiment is T3, heIF3j-W52A (human, UniProt O75822 1-258, W52A).
T3 construct: human eIF3j, full length, W52A; source: E. coli BL21(DE3), purified (nickel-chelating column, TEV cleavage, second nickel column)
The experiment is described as above.

Experiment [1] concerns the target T4, heIF3j (full-length, untagged, wt) (human, UniProt O75822 1-258).
T4 construct: human eIF3j, full length; also called human eIF3j; wt heIF3j; source: E. coli BL21(DE3), purified (nickel-chelating column, TEV cleavage, second nickel column)
Described as above.

The target in a further experiment is T5, heIF3j-D50K-D53K-D57K (human, UniProt O75822 1-258, D50K | D53K | D57K).
T5 construct: human eIF3j, full length, D50K, D53K and D57K; source: E. coli BL21(DE3), purified (nickel-chelating column, TEV cleavage, second nickel column)
The experiment is described as above.

The target in experiment [2] is T4, heIF3j (full-length, untagged, wt). Briefly: pull-down; His6-heIF3b-RRM (wt or mutant) incubated with untagged full-length heIF3j (30 μM each) 15 min at room temperature, His-select spin columns; 50 mM sodium phosphate pH 8, 100 mM NaCl; washes with 5 mM imidazole, elution with 250 mM imidazole; SDS-PAGE, InstantBlue.
The experiment “heIF3b-RRM_(170-274)” has as its target B1. Briefly: NMR solution structure; 13C/15N-labeled heIF3b-RRM with heIF3j peptide or labeled peptide with heIF3b-RRM; 20 mM deuterated TRIS pH 7.5, 100 mM NaCl, 25°C; 0.7 mM RRM, 0.7-1.0 mM peptide; 32 intermolecular NOEs.

T4 sequence (O75822 whole entry): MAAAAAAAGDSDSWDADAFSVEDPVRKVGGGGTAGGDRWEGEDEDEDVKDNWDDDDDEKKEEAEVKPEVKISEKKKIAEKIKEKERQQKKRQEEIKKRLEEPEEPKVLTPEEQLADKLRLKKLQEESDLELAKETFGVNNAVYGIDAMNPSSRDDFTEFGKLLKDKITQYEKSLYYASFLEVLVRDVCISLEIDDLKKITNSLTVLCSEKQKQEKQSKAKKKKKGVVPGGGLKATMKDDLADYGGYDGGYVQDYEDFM
T5 sequence (O75822 whole entry D50K/D53K/D57K): as the sequence (O75822 whole entry) above, with D50K, D53K, D57K counted along it
T1 sequence (O75822 whole entry N51A/W52A): as the sequence (O75822 whole entry) above, with N51A, W52A counted along it
T2 sequence (O75822 whole entry N51A): as the sequence (O75822 whole entry) above, with N51A counted along it
T3 sequence (O75822 whole entry W52A): as the sequence (O75822 whole entry) above, with W52A counted along it

Take B1: the Kd in the experiment with heIF3j-N51A-W52A is above 10000 µM; with heIF3j-N51A it was 55 ± 0.3 µM; with heIF3j-W52A it was above 10000 µM; in experiment [1], 20.3 µM; with heIF3j-D50K-D53K-D57K, above 10000 µM.

For B2, the binding result in experiment [2] is “binds”.

Take B3: in experiment [2], the binding result is listed as “binds”.

As to B4, the binding result in experiment [2] is listed as “binds”.

For the molecule B5, the binding result with heIF3b-RRM_(170-274) is reported as “binds”.
